# Source: the supplement of paper PMC7877785
# ± gives the uncertainty stated by the source.
# Assay: self-splicing fitness, log relative to wild type (ln ratio); higher = more splicing; Tetrahymena group I intron in knt gene, E. coli kanamycin selection, DiMSum; sequences stand for … in CUCUCU…GGAGGGAAAAGUUAUCAGGCAUGCACCUGGUAGCUAGUCUUUAAACCAAUAGAUUGCAUCGGUUUAAAAGGCAAGACCGUCAAAUUGCGGGAAAGGGGUCAACAGCCGUUCAGUACCAAGUCUCAGGGGAAACUUUGAGAUGGCCUUGCAAAGGGUAUGGUAAUAAGCUGACGGACAUGGUCCUAACCACGCAGCCAAGUCCUAAGUCAACAGAUCUUCUGUUGAUAUGGAUGCAGUUCACAGACUAAAUGUCGGUCGGGGAAGAUGUAUUCUUCUCAUAAGAUAUAGUCGGACCUCUCCUUAAUGGGAGCUAGCGGAUGAAGUGAUGCAACACUGGAGCCGCUGGGAACUAAUUUGUAUGCGAAAGUAUAUUGAUUAGUUUUGGAGUACUCGUGGUCG
# How it was run: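 Fitness was computed with DiMSum as the error-weighted combination of replicate fold changes, kanamycin versus none, each normalised to wild type. The library randomised all eight intron nucleotides of the P1ex region, with the intron placed in the knt kanamycin-resistance gene on pET-22b(+) in E. coli BL21(DE3). Six replicate transformations were grown overnight at 37°C or 30°C on LB agar with or without 25 μg/mL kanamycin, plus 100 μg/mL carbenicillin, 50 μM IPTG and 0.2% rhamnose. Pooled colonies were amplicon-sequenced on an Illumina HiSeq 2500.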
Sequence,self-splicing fitness (ln) (30 °C),self-splicing fitness (ln) (37 °C)
CAUUAGCAAUAUUACGUAAU,-2.73 ± 0.19,-1.96 ± 0.21
CAUUAGCAAUAUUACGUUGC,-3.96 ± 0.19,-2.8 ± 0.19
CCAAAGCAAUAUUACGAAGA,-3.61 ± 0.27,-2.2 ± 0.22
CCAAAGCAAUAUUACGAAUC,-2.82 ± 0.33,-2.52 ± 0.34
CCAAAGCAAUAUUACGACCG,-0.022 ± 0.096,-0.0691 ± 0.14
CCAAAGCAAUAUUACGAGUU,-4.72 ± 0.34,-2.31 ± 0.16
CCAAAGCAAUAUUACGAUAC,-2.15 ± 0.27,–
CCAAAGCAAUAUUACGAUAU,-4.16 ± 0.15,-2.79 ± 0.13
CCAAAGCAAUAUUACGAUCG,0.0481 ± 0.058,-0.183 ± 0.075
CCAAAGCAAUAUUACGAUGC,-3.78 ± 0.19,-3.64 ± 0.24
CCAAAGCAAUAUUACGAUGG,-4.15 ± 0.22,-2.29 ± 0.22
CCAAAGCAAUAUUACGAUGU,-2.93 ± 0.1,-2.1 ± 0.11
CCAAAGCAAUAUUACGCCGC,–,-2.58 ± 0.38
CCAAAGCAAUAUUACGCCUG,-0.536 ± 0.055,-0.707 ± 0.07
CCAAAGCAAUAUUACGCGAU,-3.16 ± 0.21,-2.79 ± 0.28
CCAAAGCAAUAUUACGCGUA,-4.41 ± 0.34,-3.75 ± 0.32
CCAAAGCAAUAUUACGCGUG,-1.93 ± 0.067,-1.26 ± 0.066
CCAAAGCAAUAUUACGGUCU,-3.75 ± 0.16,-3.15 ± 0.19
CCAAAGCAAUAUUACGUACC,-3.76 ± 0.37,-2.19 ± 0.32
CCAAAGCAAUAUUACGUAUA,-4.79 ± 0.32,-2.3 ± 0.14
CCAAAGCAAUAUUACGUCAG,-1.64 ± 0.065,-0.149 ± 0.08
CCAAAGCAAUAUUACGUCAU,-3.8 ± 0.2,-2.87 ± 0.22
CCAAAGCAAUAUUACGUUGA,-3.42 ± 0.29,-0.401 ± 0.14
CCAAAGCAAUAUUACGUUGU,-3.77 ± 0.12,-2.44 ± 0.12

Sequence,self-splicing fitness (ln) (30 °C),self-splicing fitness (ln) (37 °C)
CCACAGCAAUAUUACGAACG,-0.247 ± 0.07,-0.267 ± 0.075
CCACAGCAAUAUUACGACAA,-3.09 ± 0.22,-1.91 ± 0.17
CCACAGCAAUAUUACGAGUC,-3.55 ± 0.24,-2.7 ± 0.22
CCACAGCAAUAUUACGAUGA,-1.9 ± 0.11,-1.77 ± 0.12
CCACAGCAAUAUUACGCAGG,-3.97 ± 0.27,-2.35 ± 0.23
CCACAGCAAUAUUACGCCUC,-2.9 ± 0.26,-2.58 ± 0.35
CCACAGCAAUAUUACGCGAC,-2.75 ± 0.17,-2.76 ± 0.26
CCACAGCAAUAUUACGCUGA,-2.51 ± 0.12,-3.16 ± 0.24
CCACAGCAAUAUUACGGCCA,-3.79 ± 0.29,-2.75 ± 0.27
CCACAGCAAUAUUACGGCGA,-3.36 ± 0.18,-1.63 ± 0.13
CCACAGCAAUAUUACGGCUA,-3.88 ± 0.16,-2.89 ± 0.15
CCACAGCAAUAUUACGGGCU,-4.83 ± 0.27,-3.07 ± 0.18
CCACAGCAAUAUUACGGGGG,-2.71 ± 0.093,-2.4 ± 0.16
CCACAGCAAUAUUACGUCAC,-3.34 ± 0.15,-2.86 ± 0.22
CCACAGCAAUAUUACGUCGC,-3.63 ± 0.17,-3.36 ± 0.22
CCACAGCAAUAUUACGUGAA,-2.7 ± 0.072,-1.01 ± 0.082
CCACAGCAAUAUUACGUGAU,-3.51 ± 0.18,-1.98 ± 0.12
CCACAGCAAUAUUACGUUGC,-3.44 ± 0.13,-2.73 ± 0.14
CCACAGCAAUAUUACGUUGU,-2.37 ± 0.076,-2.83 ± 0.13
CCAGAGCAAUAUUACGAAAU,-3.47 ± 0.23,-2.93 ± 0.25
CCAGAGCAAUAUUACGACAA,–,-2.03 ± 0.45
CCAGAGCAAUAUUACGACAC,-1.29 ± 0.22,–
CCAGAGCAAUAUUACGACAG,-0.807 ± 0.094,-0.408 ± 0.15
CCAGAGCAAUAUUACGACGU,-3.74 ± 0.27,-3.28 ± 0.47
